Numbering of substitutions follows the chain as printed.
B1: 275H9A2 (antibody, V domains shown)
VH: QAYLQQSGAELVRSGASVKMSCRASGYSFTSHNMHWVKQTPGQGLEWIGYIYPGNGGSYYNQKFKGKAILTADTSSSTAYMQISSLTSEDSAVYFCTRDYYGNSFVYWGQGTLVTVSA
VL: DVVMTQSPSSLTEKTGEKVSMSCKSSQSLLNSGNQKNYLTWYQQKPGQPPKLLIYWASTRESGVPDRFTGSGSGTDFTLTISSLQTEDLAVYYCQNNFRYPFTFGAGTKLELK
B2: 280F3B6 (antibody, V domains shown)
VH: B1 VH with R23K, S28T, S58T, Y59N, I69T, V106A
VL: B1 VL with V2I, T15A, K18R, L30F, L84V, T86A, N97D, F98Y, R99W
B3: 277F1F8 (antibody, V domains shown)
VH: B1 VH with A9P, R23K, S28T, Y52N, S58N, Y59N, I69T, T97A, V106A, Y107F
VL: B1 VL with V2I, K14T, T15A, L84V, T86A, N97D, F98Y, Y100F
B4: 279E8B8 (antibody, V domains shown)
VH: QAYLQQSGAELVRSGASVKISCKASGYTFASHNMHWVKQTPGQGLEWIGYIYPGNGGTKYNQKFTGKATLSADTSSSTAYLQISSLTSEDSAVYFCARDYFGNSFVYWGQGTLVTVSA
VL: B1 VL with V2I, T15A, S22R, L84V, T86A, E87D, N97D, F98Y, R99M
B5: 198F10B8 (antibody, V domains shown)
VH: QAYLQQSGAELVRSGASVRMSCKASGYTFSSYNMHWVKQTPGQGLEWIGYIYPGNGGTNYNQKFKDKATLTADTSSSTAFIQISSLTSEDSAVYFCLTGRGFAYWGQGTLVTVSA
VL: DIVMTQSPSSLTVTAGERVTMSCKSSQSLFNSGNQKNYLTWYQQKPGQPPKLLIYRASTRESGVPDRFTGSGSGTDFTLTISSVQAEDLAVYYCQNDYSYPLTFGVGTKLELK
B6: 392A11C8 (antibody, V domains shown)
VH: DVQLVESGGGLVQPGGSRKLSCAASGFTFSGFGMHWIRQTPEKGLEWVAYISSGSRPIYYADTVKGRFTISRDNPKNTLFLQMTSLRSEDTAMYFCARFYYGNSFDHWGQGTLVTVSA
VL: B5 VL with S10F, R18K, K24R, F30L, R56W, V91L, D97A, Y100F, V106A
B7: 286C7F11 (antibody, V domains shown)
VH: QVQLKESGPGLVAPSQSLSITCTVSGFSLTDYGVSWIRQPPGKGLEWLGVIWNRGNTYYNSALKSRLSISKDNSKSQVFLRMNSLQTDDTAMYYCAKHDFLRFLDYWGQGTTLTVSS
VL: B5 VL with I2V, R18K, F30L, L52I, R56W, T78S, S82T, Q95L, S99Y, V106A
B8: 406F11G8 (antibody, V domains shown)
VH: B6 VH with G31S, I37V, T40A, R56S, P75S, F99I, D106A, H107Y
VL: B5 VL with R18K, T20A, S28T, F30L, R56W, D97A, S99Y, V106S
B9: 406E1H7 (antibody, V domains shown)
VH: B6 VH with K65Q, A118S
VL: B5 VL with S10F, R18K, F30L, R56W, V91L, D97A, Y100F, V106A
B10: 410D9G2 (antibody, V domains shown)
VH: B6 VH with K65Q, A118S
VL: B5 VL with S10F, R18K, F30L, R56W, V91L, D97A, Y100F, V106A
B11: 391H11H3 (antibody, V domains shown)
VH: B6 VH with K65Q, A118S
VL: B5 VL with S10F, R18K, F30L, R56W, V91L, D97A, Y100F, V106A
B12: 393C2C5 (antibody, V domains shown)
VH: B6 VH with G31S, I37V, T40A, R56S, R98T, D106A, H107Y
VL: B5 VL with R18K, S28T, F30L, P46S, R56W, D97A, L102V, V106S, L110V
B13: 407D8G1 (antibody, V domains shown)
VH: B6 VH with K65Q, A118S
VL: B5 VL with S10F, R18K, F30L, R56W, V91L, D97A, Y100F, V106A
B14: 391F1G2 (antibody, V domains shown)
VH: B6 VH with G31S, I37V, T40A, R56S, F99I, D106A, H107Y
VL: B5 VL with R18K, T20A, S28T, F30L, I54L, R56W, D97A, S99Y, V106S
B15: 410A9A9 (antibody, V domains shown)
VH: B6 VH with G31S, I37V, T40A, R56S, R98T, D106A, H107Y
VL: B5 VL with R18K, S28T, F30L, P46S, R56W, D97A, L102V, V106S, L110V
B16: 200A4H8 (antibody, V domains shown)
VH: QVQLKQSGPGLVQPSQSLSITCTVSGFSLTRYGVHWVRQSPGKGLEWLGVIWSGGNTDYNAAFISRLNIRKDNSKSQVFFKMNSLKPNDTAIYYCARAAYFGNSFDYWGQGTTLTVSS
VL: B5 VL with T12P, R18K, F30L, R56W, E61D, D97N, S99I, V106A
B17: 395B3C11 (antibody, V domains shown)
VH: B6 VH with K65Q, A118S
VL: B5 VL with S10F, R18K, F30L, R56W, V91L, D97A, Y100F, V106A
B18: 292D9C7 (antibody, V domains shown)
VH: B7 VH with N53G, R54G, T57A, R81K, Q86R, H98N, D99G, F100L, F103Y, T111S
VL: B5 VL with I2T, R18K, F30L, R56W, T75R, A86V, V91I, S99Y, V106A, L110V
B19: 370E2B12C3 (antibody, V domains shown)
VH: QVQLKESGPGLVAPSQSLSITCTVSGFSLTTYGVHWVRQPPGKGLEWLGVIWAGGSTNYNSALMSRVSINKDNSKSQVFIKMNSLQADDTALYYCARAAYYGNGLDYWGQGTTLTVSS
VL: DIVMTQSPSSLTVTAGEKVTMSCKSSQTLLNSGNQKNYLTWYQQKPGQPPKLLIYWASTGESGVPDRFTGSGSGTDFTLTISSVQAEDLAVYFCQNAYFYPFTFGGGTKLEIK
B20: 407H12E6 (antibody, V domains shown)
VH: B6 VH with F29V, G31S, I37V, T40A, R56S, M93I
VL: B19 VL with A15T, T28S, P49S, G60R, A86T, A97N, Y100F, F102L, G106A, I112L
B21: 406G3C4 (antibody, V domains shown)
VH: EIQLQQSGPELMKPGASVRISCKASGYSFISYYIYWVKQSHGKGLEWIGYIDPFNGNTNYNQKFKGKATLTVDRSSSTAYIHLNSLTSEDSAVYYCAIVNGYGRGAMDYWGQGTSVTVSS
VL: QIVLTQSPAIMSASPGEKVTMTCSASSSISYMHWYQQKSGTSPKRWIYDTSKLASGVPARFSGSGSGTSYSLTISSMEAEDAATYYCQQWSSNPLTFGDGTKLELK
B22: 392C2F10 (antibody, V domains shown)
VH: EVQLQQSGPELVKPGASMKISCKASGYSFTGYTMNWVKQSLGKNLEWIGLINPFNGGTTYNQKFKGKATLTVDKSSSTAYMELLSLTSDDSAVYYCTRGDYWGQGTTLTVSS
VL: DIVMTQSPSSLTVTAGEKVTMSCKSSQSLLNSGNQKNYLTWYQQKPGQPPKLLIYWASTRESGVPDRFAGSGSGTDFTLTISSVQAEDLAVYYCQSDYSYPTFGAGTKLELK
B23: 394C2G5 (antibody, V domains shown)
VH: B6 VH with I51V
VL: DIVMTQSPSFLTVTAGEKVTMSCKSSQSLLNSGNQKNYLTWYQQKPGQPPKLLIYWASTRESGVPDRFTGSGSGTDFTLTINNVQAEDLALYYCQNAYSFPLTFGAGTKLELT
B24: 409G10G6 (antibody, V domains shown)
VH: B6 VH with G54D, A97G
VL: B23 VL with M21L, K24R, K36R, N82S, N83S, L89R, A106T, T113R
B25: 407E11H8 (antibody, V domains shown)
VH: B6 VH with G31D, A97V, Y101F
VL: B23 VL with S22T, K24R, S28N, Q35L, Y55S, N82S, N83S, A86P, T113K
B26: 405G8F11 (antibody, V domains shown)
VH: B6 VH with A23V, A24T, G31S, I37V, T40A, R56S, T84S, D106A, H107Y
VL: DIVMTQSPSSLTVTAGEKVTMNCKSSQSLLNSGNQKNYLTWYQQKLGQPPKLLMYWASTRESGVPDRFTGSGSGTDFTLTISSVQAEDLAVYFCQSAFSYPLTFGAGTKLELK
B27: 409D1A7 (antibody, V domains shown)
VH: B6 VH with Q82H
VL: B23 VL with S22N, K36R, N82S, N83S, T113N
B28: 407A8G10 (antibody, V domains shown)
VH: B6 VH
VL: B23 VL with K24R, K36R, T78A, N82S, N83S, T113K

Target: human Claudin18.2 (human)
Experiment: cell-based or functional assay

Binder	CDC % Relative activity [%]	CDC EC50 [µg/mL]
B1	142	1.15
B2	121	1.35
B3	106	1.54
B4	129	1.27
B5	526	0.3
B6	133	1.95
B7	107	1.52
B8	101	2.57
B9	125	2.07
B10	87.9	2.97
B11	125	2.07
B12	285	0.909
B13	849	0.308
B14	176	1.47
B15	300	0.872
B16	84.5	2.27
B17	144	1.8
B18	151	1.14
B19	379	0.453
B20	143	1.83
B21	136	1.93
B22	5.43	47.6
B23	131	1.98
B24	55.6	4.7
B25	60.4	4.32
B26	0.08	3220
B27	33.5	7.78
B28	23.9	10.9

From US20220073643A1 (NANJING GENSCRIPT BIOTECH, published 2022)
